Drawing on PMC8954794, “NMR Structure and Biophysical Characterization of Thermophilic Single-Stranded DNA Binding Protein from Sulfolobus Solfataricus”, this text covers Kd for 1 molecule.

Usually Kd stands for the free concentration of one partner at which half of the binding sites on the other are occupied at equilibrium, for simple one-to-one binding.

This data set addresses T1, SsoSSB1-114 (Sulfolobus solfataricus, UniProt Q97W73 1-114).
T1 sequence: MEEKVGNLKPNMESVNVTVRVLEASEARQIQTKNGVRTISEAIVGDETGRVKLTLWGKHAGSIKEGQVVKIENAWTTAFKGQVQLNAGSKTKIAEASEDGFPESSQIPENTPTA
Put plainly: ITC; 25 C; n = 1.009; Buffer A: 100 mM NaCl, 20 mM MES pH 6.5; ITC at 25 C (500 uM dA15 into 50 uM protein); NMR with 10% D2O at 25 and 50 C (SsoSSB12-114 at 25 C only). The note with it: protein: recombinant; tags: C-terminal TEV-His6 vector; single strand. (Isothermal titration calorimetry measures the heat released or taken up as one component is titrated into another.)

In the case of AAAAAAAAAAAAAAA (ssDNA) [dA(15)], the dissociation constant (Kd) was 1750 nM.
